This data set concerns the molecule itself. Kind of data set: cryo-EM structure.

A word on the stoichiometry N: it is a count of units in the complex or per binding partner.

Several values for one entry are separate records, joined by “and”; a condition that tells them apart may be missing. Equal values may be shown once.

B1: mouse bestrophin 1 with a C-terminal tandem tag of BRIL and 3X Flag (mBEST1-BRIL-3xFLAG) (natural protein, UniProt O88870 1-551, looked up)
chain: MTITYTNKVANARLGSFSSLLLCWRGSIYKLLYGEFLVFIFLYYSIRGLYRMVLSSDQQLLFEKLALYCDSYIQLIPISFVLGFYVTLVVSRWWSQYENLPWPDRLMIQVSSFVEGKDEEGRLLRRTLIRYAILGQVLILRSISTSVYKRFPTLHHLVLAGFMTHGEHKQLQKLGLPHNTFWVPWVWFANLSMKAYLGGRIRDTVLLQSLMNEVCTLRTQCGQLYAYDWISIPLVYTQVVTVAVYSFFLACLIGRQFLNPNKDYPGHEMDLVVPVFTILQFLFYMGWLKVAEQLINPFGEDDDDFETNWIIDRNLQVSLLSVDGMHQNLPPMERDMYWNEAAPQPPYTAASARSRRHSFMGSTFNISLKKEDLELWSKEEADTDKKESGYSSTIGCFLGLQPKNYHLPLKDLKTKLLCSKNPLLEGQCKDANQKNQKDVWKFKGLDFLKCVPRFKRRGSHCGPQAPSSHPTEQSAPSSSDTGDGPSTDYQEICHMKKKTVEFNLNIPESPTEHLQQRRLDQMSTNIQALMKEHAESYPYRDEAGTKPVLYE
B1: the “stoichiometry N” value was 5 and 10.

These data come from PMC11964753 (Molecules and Cells, 2025).
